Data reported in publication PMC4117581, “Strain-Specific Variation of the Decorin-Binding Adhesin DbpA Influences the Tissue Tropism of the Lyme Disease Spirochete” (PLoS Pathogens, 2014).

Key:
[1] = target: Recombinant human decorin (human) (UniProt P07585); experiment: SPR; Biacore 3000; 10 µg biotinylated decorin on an SA chip; 0-500 nM DbpA injected at 10 µL/min, 25°C; control flow cell with PBS; 1:1 Langmuir model
[2] = target: Recombinant human decorin (human) (UniProt P07585); experiment: ELISA; quantitative ELISA; 1 µg decorin coated on microtiter wells; 0.03125-2 µM histidine-tagged DbpA added; detected with mouse anti-histidine tag and HRP anti-mouse IgG; KD from a fit of the curve
[3] = target: T1, Recombinant human decorin (human, UniProt P07585 31-359, biotin (biotinylated decorin on the SA chip in the SPR experiment; sites not stated)); experiment: SPR; Biacore 3000; 10 µg biotinylated decorin on an SA chip; 0-500 nM DbpA injected at 10 µL/min, 25°C; control flow cell with PBS; 1:1 Langmuir model; settings: both partners purified
T1 construct: Decorin, human, recombinant; Decorin is a proteoglycan that carries dermatan sulfate; Secreted from CHO cells, so probably the mature protein (surmise); source: stably transfected Chinese hamster ovary cells (ATCC CCL 61), purified; gift from MedImmune

[4] = target: T1, Recombinant human decorin; experiment: ELISA; quantitative ELISA; 1 µg decorin coated on microtiter wells; 0.03125-2 µM histidine-tagged DbpA added; detected with mouse anti-histidine tag and HRP anti-mouse IgG; KD from a fit of the curve; settings: both partners purified

Recombinant human decorin (human), sequence (P07585 31-359): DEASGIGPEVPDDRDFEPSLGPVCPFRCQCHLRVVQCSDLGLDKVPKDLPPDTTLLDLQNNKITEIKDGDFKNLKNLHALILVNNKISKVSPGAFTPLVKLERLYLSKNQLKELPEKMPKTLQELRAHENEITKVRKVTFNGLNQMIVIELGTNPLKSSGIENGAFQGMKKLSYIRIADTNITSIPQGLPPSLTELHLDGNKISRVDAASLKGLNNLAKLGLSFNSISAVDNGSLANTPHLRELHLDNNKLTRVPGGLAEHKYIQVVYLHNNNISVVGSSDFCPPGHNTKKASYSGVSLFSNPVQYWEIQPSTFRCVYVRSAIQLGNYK
T1 sequence (P07585 31-359): as above

Molecule	Kd [1] [nM]	koff [1] [s⁻¹]	kon [1] [M⁻¹ s⁻¹]	Kd [2] [nM]	Kd [3] [nM]	koff [3] [s⁻¹]	kon [3] [M⁻¹ s⁻¹]	Kd [4] [nM]
DbpAPBr, recombinant histidine-tagged DbpA of B. garinii strain PBr (natural protein)	90	0.13	1.83e+06	60				
DbpA_(B356), recombinant histidine-tagged DbpA of B. burgdorferi strain B356 (natural protein)	840	0.06	66000	950				
DbpA297, recombinant histidine-tagged DbpA of B. burgdorferi strain 297 (from UniProt O50917 30-187) (natural protein)	300	0.1	351000	140				
DbpA_(VS461), recombinant histidine-tagged DbpA of B. afzelii strain VS461 (natural protein)	260	0.04	152000	290				
DbpA_(N40-D10/E9), recombinant histidine-tagged DbpA of B. burgdorferi strain N40-D10/E9 (from UniProt O50917 30-191) (natural protein)	710	0.07	97000	850				
DbpAB31, recombinant histidine-tagged DbpA of B. burgdorferi strain B31 (natural protein) ATKIRLERSAKDITDEIDAIKKDAALKGVNFDAFKDKKTGSGVSENPFILEAKVRATTVAEKFVIAIEEEATKLKETGSSGEFSAMYDLMFEVSKPLQKLGIQEMTKTVSDAAEENPPTTAQGVLEIAKKMREKLQRVHTKNYCTLKKKENSTFTDEKCKNN					280	0.11	417000	210
